Our source for the Kd values is article PMC8972253.

In general, Kd refers to the free concentration of one partner at which half of the binding sites on the other are occupied at equilibrium, for simple one-to-one binding. Low readings indicate a tighter complex, high ones a looser complex.

This assay has as its target HER2 receptor (human (endogenous in SKBR3)) (UniProt P04626). The assay can be described thus: BLI. (In BLI a coated tip is dipped into the sample, and binding shifts an interference pattern.)

Regarding Thiomab Tras-LC-V205C, the Kd amounted to 1 nM. In other words, the single-digit nanomolar range.
